Source: patent publication US20140294819A1 (NVIP, published 2014)
Each block holds one molecule with its values, some of them ahead of it.

Assays:
[1] = molecular target: canine CD20 cyclic (oxidised, disulphide-bonded) peptide SEQ ID NO:2 (canine); assay: ELISA, biotinylated oxidised peptide on streptavidin plate; conditions: scale: fold of the binding to human CD20 peptide
[2] = molecular target: T1, canine CD20 cyclic (oxidised, disulphide-bonded) peptide SEQ ID NO:2 (canine, disulphide bond between the two cysteine residues (corresponding to positions 167 and 183); N-terminal biotin in the streptavidin-plate assays); assay: ELISA on cyclised CD20 peptide
T1 construct: Chemically synthesised and oxidised; also called C20; caCD20 peptide
T1 peptide: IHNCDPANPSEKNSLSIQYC

[3] = molecular target: T2, human CD20 cyclic (oxidised) peptide SEQ ID NO:3 (human, disulphide bond between the two cysteine residues; biotinylated); assay: ELISA on cyclised CD20 peptide
T2 construct: also called H20; human CD20 cyclic peptide
T2 peptide: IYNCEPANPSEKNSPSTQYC

[4] = molecular target: T3, murine CD20 cyclic (oxidised) peptide SEQ ID NO:6 (murine, disulphide bond between the two cysteine residues; biotinylated); assay: ELISA on cyclised CD20 peptide
T3 construct: also called M20; mouse CD20 peptide
T3 peptide: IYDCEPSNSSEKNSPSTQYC

[5] = molecular target: T4, feline CD20 cyclised peptide SEQ ID NO:4 (feline, cyclised by a disulphide bond between the two cysteine residues); assay: ELISA on cyclised CD20 peptide
T4 construct: also called feline CD20 peptide
T4 peptide: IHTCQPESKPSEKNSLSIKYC

[6] = molecular target: T1, canine CD20 cyclic (oxidised, …); assay: ELISA, CHO supernatant on canine CD20 cyclic peptide, dose response
Source text: This confirms the data with Bly-1 above (and by extension its humanised variant GA101) that this is a further example of a Type II anti-human CD20 monoclonal antibody that also binds to a common epitope on canine CD20, thus validating the use of the structurally constrained shared epitope on canine CD20 as a novel target for monoclonal antibodies.

- binding relative to the binding to human CD20 peptide [1]: 0.167
Molecule: B1-H299 (Beckmann Coulter) murine Type II anti-human CD20 monoclonal antibody

- binding result [2]: binds
- binding result [3]: binds
- binding result [4]: binds
- binding result [5]: binds
B1: caninised RF2, HCC isotype (antibody)
heavy: EVQLVQSGGGLVKPTESLTISCVISGFSLTSYGVHWVRQSPGKGLEWLGVIWSGGSIDYNAAFISRLSISKDNSKSTVFIRMNSLRADDTAIYYCARGPRKFYYFGMDYWGQGTSVTVSSASTTAPSVFPLAPSCGSQSGSTVALACLVSGYIPEPVTVSWNSVSLTSGVHTFPSVLQSSGLYSLSSMVTVPSSRWPSETFTCNVAHPATNTKVDKPVAKECECKCNCNNCPCPGCGLLGGPSVFIFPPKPKDILVTARTPTVTCVVVDLDPENPEVQISWFVDSKQVQTANTQPREEQSNGTYRVVSVLPIGHQDWLSGKQFKCKVNNKALPSPIEEIISKTPGQAHQPNVYVLPPSRDEMSKNTVTLTCLVKDFFPPEIDVEWQSNGQQEPESKYRMTPPQLDEDGSYFLYSKLSVDKSRWQRGDTFICAVMHEALHNHYTQISLSHSPGK
light: DIVMTQTPLSLSVSQEEEASISCRSSQNIVHSNGNTYVEWYLQKPGQSPKLLIYKVSNRFSGVPDRFSGSGSGTDFTLKISRVEAEDAGVYYCFQGSHVPLTFGAGTKLELKRNDAQPAVYLFQPSPDQLHTGSASVVCLLNSFYPKDINVKWKVDGVIQDTGIQESVTEQDKDSTYSLSSTLTMSSTEYLSHELYSCEITHKSLPSTLIKSFQRSECQRVD
notes: also called caRF2-C

- binding result [6]: binds
B2: recombinant caninised GA101 (full length canine antibody) (antibody, V domains shown)
VH: EVQLVQSGGEVVKPGGSLKVSCVASGYAFSYSWINWVRQAPGQGMEWVGRIFPGDGDTDYNGKFKGRVTITRDNSKSTAYLELSSLRSEDTAVYYCARNVFDGYWLVYWGQGTLVTVSS
VL: DIVMTQTPLSLSVTPEEPASISCRSSKSLLHSNGITYLYWYLQKPGQSPQLLIYQMSNLVSGVPDRFSGSGSGTDFTLKISRVEAEDVGVYYCAQNLELPYTFGAGTKVEIKR
notes: Tested as CHO cell supernatant
